Reference: ChEMBL document CHEMBL4321793, “Can Cysteine Protease Cross-Class Inhibitors Achieve Selectivity?” (J Med Chem, 2019)

Experiments:
[1] = system: N=C(N)NCCC[C@H](NC(=O)[C@H](Cc1ccc(NC(=N)N)cc1)NC(=O)OCc1ccccc1)C(=O)Nc1ccc2ccc(=O)oc2c1; test: (§1) Inhibition of human cathepsin B assessed as ratio of Kcat/Km using Z-Phe-Arg-MCA as substrate by spectrofluorometric method
[2] = system: N=C(N)NCCC[C@H](NC(=O)OCc1ccccc1)C(=O)N[C@@H](CCCNC(=N)N)C(=O)Nc1ccc2ccc(=O)oc2c1; test: as §1
[3] = system: N=C(N)NCCC[C@H](NC(=O)[C@H](Cc1ccncc1)NC(=O)OCc1ccccc1)C(=O)Nc1ccc2ccc(=O)oc2c1; test: as §1
[4] = system: N=C(N)NCCC[C@H](NC(=O)[C@H](Cc1ccccc1)NC(=O)OCc1ccccc1)C(=O)Nc1ccc2ccc(=O)oc2c1; test: as §1

Q: Cathepsin B (Homo sapiens) was tested. Which kcat/Km [1] did it give?
A: 1.57e+06 M⁻¹ s⁻¹

Q: And the kcat/Km [2]?
A: 554000 M⁻¹ s⁻¹

Q: What about the kcat/Km [3] of the same substance?
A: 742000 M⁻¹ s⁻¹

Q: What about the kcat/Km [4] of the same substance?
A: 2.32e+06 M⁻¹ s⁻¹
